Laboratory results reported in article PMC9714666 (Frontiers in Immunology, 2022).

Columns and labels:
[1] = molecular target: T1, SARS-CoV-2 Omicron (B.1.1.529) RBD, biotinylated (SARS-CoV-2 Omicron B.1.1.529 (BA.1), strain, biotinylated); experiment: BLI; settings: both partners purified
T1 construct: source: bought: ACRObiosystems

[2] = molecular target: T2, SARS-CoV-2 Omicron BA.5 RBD, biotinylated (SARS-CoV-2 Omicron BA.5, strain, biotinylated); experiment: BLI; settings: both partners purified
T2 construct: source: bought: ACRObiosystems

B1: D27LEY (antibody, V domains shown)
VH: QVQLQQSGAEVKKPGSSVKVSCKASGGTFGNWSISWVRQAPGQGLEWMGGIAPGRGEATYAQKFQGRVTITTDESTSTAYMELSSLRSEDTAVYYCARETWYTSGGMDVWGQGTTVTVSS
VL: SYELTQPPSVSVAPGKTARITCGGNNIGRKSVHWYQQKPGQAPVLVVYDDSDRPSGIPERFSGSNSGNTATLTISRVEAGDEADYYCQVYDLWSSDYVFGTGTKVEIK
[1]
  Kd: 340 pM
[2]
  Kd: 370 pM
